Assay: soluble on expression in E. coli; label from the status in PepcDB or PDB records
In the case of “MAEKPHMNLVVIGHVDHGKSTLVGHLLYRLGYIEEKKLKELEEQAKSRGKESFKFAWILDKMKEERERGITIDLTFMKFETKKYVFTIIDAPGHRDFVKNMITGASQADAAILVVSARKGEFEAGMSTEGQTREHLLLARTMGIEQIIVAVNKMDAPDVNYDQKRYEFVVSVLKKFMKGLGYQVDKIPFIPVSAWKGDNLIERSPNMPWYNGPTLVEALDQLQPPAKPVDKPLRIPVQNVYSIPGAGTVPVGRVETGVLRVGDKVVFMPPGVVGEVRSIEMHYQQLQQAEPGDNIGFAVRGVSKSDIKRGDVAGHLDKPPTVAEEFEARIFVIWHPSAITVGYTPVIHVHTASVSSRIIEIKAKLDPKTGQVVEQNPQFLKAGDAAIVRFKPVKPLVVEKFSEIPQLGRFAMRDMNRTVGIGIVTDVKPAKVDIKAK”, the “soluble on expression in E. coli” value is reported as “soluble”. For “MELINKDTLQIKEFISSLDSMLDGIESIVKHYKPHLNGERFLSNNEVSKKLNVSLRTLQEWRDTGLIPFIQIKGKIIYRQSDIDKLLQKHYFEGWKE”, the “soluble on expression in E. coli” value was “not soluble”. In the case of “IATGIPTGFKDLDDLTNGLRGGQMIIVAARPGVGKSTIALDFMRSASIKNNMASVIFSLEMSKSEIVMRLLSAETEIRLADMRGGKMDETAWEKMVQKLDKVAQAPLFIDDSANLTMMEIRSKARKLKQKHDLKMIVVDYLQLMSSGKRVESRQQEVSEFSRQLKLLAKELDVPLIAISQLNRGPESRTDKRPQLADL”, the “soluble on expression in E. coli” value is reported as “not soluble”. For “STRFLEKRHKKKKATNKERILSYKPIHAIEQENSFRSSRCSNQTVEVSAVEDSRSALVGFFESNEPSESVTLKGKRERQLLASKTLISQLKEENCRLKERLNEVKDQLELKEKIALVQQENNDLEAEVLEWKAKFYESESEKERILASRSRPKDGYEIVQESLAQQPGTTSFYDYKFRQLVHKLTRMNAIHSKHNDKEYHKCDIVNESKDRSITFELFIDEEQEEIEYVPVQLNGVSQKLPSYLQDNISFDVQNAPIFFTKIMHSLFSK”, the “soluble on expression in E. coli” value was “soluble”. For “MKIVDVLCTPGLTGFYFDDQRAIKKGAGHDGFTYTGSTVTEGFTQVRQKGESISVLLVLEDGQVAHGDCAAVQYSGAGGRDPLFLAKDFIPVIEKEIAPKLIGREITNFKPMAEEFDKMTVNGNRLHTAIRYGITQAILDAVAKTRKVTMAEVIRDEYNPGAEINAVPVFAQSGDDRYDNVDKMIIKEADVLPHALINNVEEKLGLKGEKLLEYVKWLRDRIIKLRVREDYAPIFHIDVYGTIGAAFDVDIKAMADYIQTLAEAAKPFHLRIEGPMDVEDRQKQMEAMRDLRAELDGRGVDAELVADEWCNTVEDVKFFTDNKAGHMVQIKTPDLGGVNNIADAIMYCKANGMGAYCGGTCNETNRSAEVTTNIGMACGARQVLAKPGMGVDEGMMIVKNEMNRVLALVGRRK”, the “soluble on expression in E. coli” value was “soluble”. In the case of “MALILTFLGKSGVARTKIAIAAAKLLASQGKRVLLAGLAEPVLPLLLEQTLTPDPQQIAPNLEVVQFQSSVLLERNWEEVKKLEAQYLRTPIIKEVYGQELVVLPGMDSALALNAIREYDASGKYDAIVYDGTGDAFTLRMLGLPESLSWYVRRFRQLFVNSDLGKTIAESPLIQPLISSFFNVNWTADNFAQPTNQVNNFLDKGKEALADPKRVAAFLVTTADPLEVVSVRYLWGSAQQIGLTIGGVIQVSSQTEGDLSAEFTPLSVTVVPDVTKGDWQPLIDALPNFVEQAEQAPKPITIDTHNRQVRLFLPGFDKKQVKLTQYGPEVTVEAGDQRRNIFLPPALSGRPITGAKFQNNYLIISFLEHHHHHH”, the “soluble on expression in E. coli” value is reported as “soluble”. In the case of “SSQFWYSEETASRLAEELLQQAGEHGRIACLSAPSVYQKLKQLESVRSDGVSAVLLEFDRRFAAYGDEFVFYDYNNPLCLPEDLLPQSFDIVIADPPYLSEECLSKVTLTVKHLTKGKILLCTGAIMEEHAGKLLDLKMCSFLPRHNHNLANEFRCYVNYESRLLS”, the “soluble on expression in E. coli” value is reported as “soluble”. In the case of “MGHHHHHHSHEPRVNTSALQKIAADMSNIIENLDTRELHFEGEEVDYDVSPSDPKIQEVYIPFSAIYNTQGFKEPNIQTYLSGCPIKAQVLEVERFTSTTRVPSINLYTIELTHGEFKWQVKRKFKHFQEFHRELLKYKAFIRIPIPTRRHTFRRQN”, the “soluble on expression in E. coli” value is reported as “not soluble”. In the case of “MGSDKIHHHHHHMILNSRTIDDAKFFDKPILLFFTDENCKDCDTIYSKLQDSTIFSKYIGKKVNALEYIHYTIRLTRGMIPTITILSPTLDLLAVIESKDLKFIENKLRELLDEYKRRIVKGIKLEGYTPDPIEPTPSIIYETINKVIGGYEADTRMIEVYLTYTNVYKEYLKAKDKIKCSDDVARYLLEGKGEIKIDEKSSANVSMLVNYGVTSVQKLLDFIDINSGEVYRSKKKETKGILLDEALAGNALVSEYERTINEEYLSLAIKVADYIKNNLQHERGFRDIKEIDNITKVPYLEPISNSEASIFFSRLWNITGDETYKNLALKGLGSALGGALNNPKVIARAAIAYLKLFDSIKANRYLNIIDARITVVKNNGCNDSMLYYSGQCYSKIDEIQPTAF”, the “soluble on expression in E. coli” value is reported as “not soluble”. In the case of “MGSDKIHHHHHHMTPSEYQNPILCADYSDPDIVRVGDDFFMVSSSFNHVPALPILHSTDLVNWTIINHVMDELPLPGYDRYQPGKGVWAPSIRWHDGKLWVCFSTPDEGIFICHTEDPWGKWSAPHCLREARGWIDPCPFWDDNGQAWLVHAFAHSRSGIKHKLQLFAMAPDASELLGEGQIIYDGCCDLPTLEGPKVYQRAGWYYIFAPAGGVENGWQTVLRARQMTGPWEAKNVLFQGNTSINGPHQGGWVEGEEGECWFVHFQDLHLYGRVVHLQPMSWGNDGWPRIGEQIGNCGVGQPVLRWPRPKGLTPSPALAPQTSDYFAQGQPGIQWQWQANPSPEWLLPAEGELRLRCVPLSEVDGQRALYWAPQLLLQKFPALTFSAKTSVTLYAAQDGDAGGLIVYGERYAALLVEFGQGGYRLVWRHGWMSDAGVVRETRQVLAELKCGKCQLQVAVGEGGLCQFSWRAEEEWRKVPLCFAAGKGKWVGAKFGLLAASMVGLQSEGYSALQDFEVIL”, the “soluble on expression in E. coli” value is reported as “not soluble”. In the case of “MSDWFQLDKEYMMSTYCRTKIAIERGEGCKLYDVDGKEYLDLFSGVGVNVLGYNHPKIVQTTMDQVTKSLHLPFHFLNPVAIEYAKKLVDCSLKNGKVFFTNSGTEATETTLKLIDKYRAITNEEREGIVVLKNSFHGRTLGALHFTRQESVYQNFPTTSIPVYEVERENIEQLEETIINENPIAILLEPVLGSGGIYPLSREYLHGVQNLCDKYNVILIVDEVQSGMGRTGKLFAYQNFNITPHIIQIGKGAGGGIPLGGIIVGEKLCDVFAPGDHGTTFAHSSMGTALGLTVLNTLLDDGLMQEAYEMSLYLNDKLQEIQKENSYYIEEVRHAGMMFGISLNDTNENVKKLQVELMEKGILVDVTQGNIIRLLPPYIITKEEIDTFITQFIFCIDKVAAVVSA”, the “soluble on expression in E. coli” value is reported as “not soluble”. With “MEAAANRQLIVSFTPYEWKYVRQLFRSRRIEDVKECVIILATWISRTGENTPVAISCSHVLLQAIYAELLSTGMCESERYMAIDDLRSKHGYAIVRFVNYVNEMGQTGATLKNMVHAVKSFGIPKKIVDIRHAITHQNCPDIAELRYATNFCLDWLWKNFWLSDARVAMNSAAATNSSKNPTSSSEFGGQRGREQQYVSSLRAFNTWRVKNRQLTTELEWSEVAELLALKHHILLDSTGFLTCFMRDGHLIQTPGQWKNWKLPVTCSNDNWQIPEEIQAFWEPLFHVMFSLKLGAEIVVAFLWRLREPMIKDMTRHQITAYVRMIVQQFADADVFSDEEWYKVLDHLLPVAKNFSTEFIELVMARCTTLAHKRKKQIRQILNISTKSHVESPSTSSSDTVHTVSDLQKLLKKSSKSVVKSEPVTSNADGNRTGIELCDVAAWAEVPFGMAPGQRIETFTVVLDHHGSDKSRKRRAFDAAITLDED” the “soluble on expression in E. coli” value was “not soluble”. With “MGSDKIHHHHHHMTAKVISFINMKGGVGKTTLCVGVSEFMAHFKSKKILLIDLDPQFNATQTLMDMYDLTDQYMNDIRFNKTIRLLFEETHSVSERPVLPKPDKVILHLDTSDVIDGELDIICGSIDLIKDDDSRKSKYKRVRKFLREQGLLKHYDYIFIDCPPTISFYTDAALYASDYYIVPTRIDRYSILGINLLKTVIEQAKFDDDLSIEPLGLIYTNYPTNNIPAPKQQEILDVLEENKDVLEIGVFRNKFHYLEHLMTGKSGNIASKYVKSKKDIEKISVEIESKVH” the “soluble on expression in E. coli” value was “not soluble”. In the case of “MDTDIRDFIIEDDLFDPFMDENEDDDRAEIDEEPETPLIGEPLDEWKKPVEDWRPAQVRIKDLFEEMPGQKRMMLKIIDYCREERTGEEMDVFTNDLKQYCYSVYSPVVFRELLEEAGAIEYIKPDEPEGSQDAAQSEERAQAGGELPEEAVSPHRGDVYGTLPVDDESTLVPIDGADIVHESYIEGDEEIQMDFLEITPCEPGTWKATEAGLEAVDSMDDLDGTKELLGKEPKYLDIYHQILDYCQDEYGRSSKEIDKLVNDSPLLEEPRRYSGYFVSRLEKQGALEWRNGWFVTEVGKKIIEEAAAHV”, the “soluble on expression in E. coli” value is reported as “not soluble”. With “MTSLQLSIVHRLPQNYRWSAGFAGSKVEPIPQNGPCGDNSLVALKLLSPDGDNAWSVMYKLSQALSDIEVPCSVLECEGEPCLFVNRQDEFAATCRLKNFGVAIAEPFSNYNPFLEHHHHHH” the “soluble on expression in E. coli” value was “not soluble”. In the case of “MAHHHHHHMGTLEAQTQGPGSMFITFEGIDGSGKTTQSHLLAEYLSEIYGVNNVVLTREPGGTLLNESVRNLLFKAQGLDSLSELLFFIAMRREHFVKIIKPSLMQKKIVICDRFIDSTIAYQGYGQGIDCSLIDQLNDLVIDVYPDITFIIDVDINESLSRSCKNGYEFADMEFYYRVRDGFYDIAKKNPHRCHVITDKSETYDIDDINFVHLEVIKVLQMV”, the “soluble on expression in E. coli” value is reported as “soluble”. With “MNELVSAFHIERANGKVNGDVVAVEPAKTVNQDAADDEVEIKLNVDNYQMLRSDSQGSLNSHGRSNSRLGRLFRSKHEMKKRETRADENRGEIEIQIDFDDLVNQLKIALIRCRDLMTFDKKDQCNPYVSVKLVALDGNKEVFKKKTPTAKNTRHPHFDNHVEIDINPSDLLNHKVVINVKDDTNYGTFVAKPVLGCLEIRLDSLMNRQLSQRWIPLSVERK” the “soluble on expression in E. coli” value was “not soluble”. With “MGSDKIHHHHHHMNIQTFMLPSQKVSPELEILHADLQTEGQHPPILFLHGYTSGAWQFAQHWMPTLQANGWQSFALNLRGHGGSAGRETVTTARFLDYADDVARAIAYVRGQTDQTPILIGHSLGSVLARHYAAEHSVPGLGLLITIGMQGFMGWMMKRYPLQGMAGMMTGRPSAMFAKFGPQYDVMYAGHNKETVRGNVERLMAQPDSDKVFMDLSKLKLGLPAKSTPTFVMAGTRDPIASVESVEALGRSYAVEPVMLQDKAHDIVAGPDWNDGLQHLQAWLETAKF” the “soluble on expression in E. coli” value was “not soluble”. With “MSLSERTFNWKNKDIRAQVDVVDSKLLPTLLLRNALVLNPYVKQWLKKNIWIYQDRIVYVGHELPNRAEEIHTIDCEGKYIVPGYIEPHAHPFQIYNPQTLAEYVSQYGTTTFVNDNLFLLLQSGKKKALTILNELKKQPVQYFWWSRYDLQTEVLNEDHVLPFDVRKQWIEHPDVIQGGEMTGWPRLVDGDDLMLHCMQATKKQRKRIEGHFPGASDKTLTKMKLFGADCDHEAMTGDEVMRRLELGYYVSLRNSSIRPDVRKILQELHEKGFRYYDHFFYTTDGATPNFYKGGMTNELIRIALEEGVPAIDAYNMASFNIAKYYQMDDYLGVVGPGRLASLNILEDPLNPNPVTVLSKGTILRENGCDLKAFTKTDWHKGGLVPLELSYDMTMDDLQFSMPMGVKMRNAVIMEPYMIEIDNSMEQLSFDHDESYLTMLDRHGKWRVNTMIKGFASSVQGFVSSFTTTGDIVAIGKNKADMLLAFARMKEIGGGIVLAENGNILHEIPLALCGCASSEAYEDVLEKEQKLRDLLTERGYEFCDPIYTLLFLQSTHLPYIRITPRGIFDVMKKTVLFPSIMREGHHHHHH” the “soluble on expression in E. coli” value was “not soluble”. For “MSADEFILQQKVHALYSNHRSWLQRWLYRKLGNACDAADLVQDTFISVITGGYADDIREPKPFLATIAGRLVAHRWRRNQLETAYLEALAALPVELMPSPEAHVLALEALLEIDRALDGLPTRVKEAFLLAHLEELSYAQIAERLNVSTSSVKQYLTRANRQCLFALSV”, the “soluble on expression in E. coli” value was “not soluble”.
